Measured values taken from publication PMC6638009 (Molecular Plant Pathology, 2018).

How the values were obtained:
[1] = molecular target: His-tagged AvrXa27 (Xanthomonas oryzae pv. oryzae, UniProt A0A0K0GNW2 1-1136); assay: MST; […]; 50 mM Tris-HCl pH 7.8, 150 mM NaCl, 10 mM MgCl2, 0.05% Tween-20; 25°C; […]; conditions: both partners purified
[2] = molecular target: His-tagged PthXo1 (Xanthomonas oryzae pv. oryzae, UniProt B2SU53 1-1373); assay: as above; conditions: both partners purified

B1: His-tagged Xa5 (OsTFIIAγ5), labelled with NT-647 (natural protein, rice (Oryza sativa), UniProt A2XZI2 1-106, looked up)
chain: MATFELYRRSTIGMCLTETLDEMVSSGTLSPELAIQVLVQFDKSMTEALENQVKSKVSIKGHLHTYRFCDNVWTFILTEASFKNEETTEQVGKVKIVACDSKLLSQ
modifications: amine-reactive red fluorescent dye NT-647
B1 gave a Kd [1] of under 1000 nM and a Kd [2] of under 1000 nM.
